Measurements taken from publication doi:10.1101/2022.09.22.509106 (bioRxiv, 2022).

Experiments:
[1] = target: T1, purified human C1q protein (human, UniProt P02745 23-245; P02746 28-253; P02747 29-245); experiment: immunostaining of cells or tissue
[2] = target: the molecule itself; experiment: negative staining electron microscopy
[3] = target: T1, purified human C1q protein; experiment: pull-down

T1 sequence (P02745 23-245, chain 1 of 3): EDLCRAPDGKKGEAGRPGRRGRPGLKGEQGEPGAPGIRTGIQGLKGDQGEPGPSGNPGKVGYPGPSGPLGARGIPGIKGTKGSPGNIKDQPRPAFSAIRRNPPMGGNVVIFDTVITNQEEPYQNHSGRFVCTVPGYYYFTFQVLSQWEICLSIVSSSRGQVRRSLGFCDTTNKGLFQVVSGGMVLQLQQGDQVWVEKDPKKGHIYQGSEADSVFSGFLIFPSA
T1 sequence (P02746 28-253, chain 2 of 3): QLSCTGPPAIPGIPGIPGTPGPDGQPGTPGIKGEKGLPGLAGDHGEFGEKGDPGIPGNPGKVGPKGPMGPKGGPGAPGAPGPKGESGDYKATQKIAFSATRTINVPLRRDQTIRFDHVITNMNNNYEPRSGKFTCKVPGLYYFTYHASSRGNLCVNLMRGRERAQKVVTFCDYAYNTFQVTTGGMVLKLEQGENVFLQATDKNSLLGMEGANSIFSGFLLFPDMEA
T1 sequence (P02747 29-245, chain 3 of 3): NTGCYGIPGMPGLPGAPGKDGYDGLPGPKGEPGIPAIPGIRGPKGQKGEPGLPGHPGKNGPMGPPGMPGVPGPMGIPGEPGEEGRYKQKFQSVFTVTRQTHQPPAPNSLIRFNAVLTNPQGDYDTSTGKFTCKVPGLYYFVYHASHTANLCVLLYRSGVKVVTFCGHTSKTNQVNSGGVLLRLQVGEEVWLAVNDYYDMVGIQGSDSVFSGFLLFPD

B1: Nptxr and Nptx2 co-expressed on a stable tetracycline-inducible CHO cell-line (Nptxr/x2) (complex, human)
chain 1: MKFLAVLLAAGMLAFLGAVICIIASVPLAASPARALPGGADNASVASGAAASPGPQRSLSALHGAGGSAGPPALPGAPAASAHPLPPGPLFSRFLCTPLAAACPSGAQQGDAAGAAPGEREELLLLQSTAEQLRQTALQQEARIRADQDTIRELTGKLGRCESGLPRGLQGAGPRRDTMADGPWDSPALILELEDAVRALRDRIDRLEQELPARVNLSAAPAPVSAVPTGLHSKMDQLEGQLLAQVLALEKERVALSHSSRRQRQEVEKELDVLQGRVAELEHGSSAYSPPDAFKISIPIRNNYMYARVRKALPELYAFTACMWLRSRSSGTGQGTPFSYSVPGQANEIVLLEAGHEPMELLINDKVAQLPLSLKDNGWHHICIAWTTRDGLWSAYQDGELQGSGENLAAWHPIKPHGILILGQEQDTLGGRFDATQAFVGDIAQFNLWDHALTPAQVLGIANCTAPLLGNVLPWEDKLVEAFGGATKAAFDVCKGRAKA
chain 2: GAQDSPAPGSRFVCTALPPEAVHAGCPLPAMPMQGGAQSPEEELRAAVLQLRETVVQQKETLGAQREAIRELTGKLARCEGLAGGKARGAGATGKDTMGDLPRDPGHVVEQLSRSLQTLKDRLESLEHQLRANVSNAGLPGDFREVLQQRLGELERQLLRKVAELEDEKSLLHNETSAHRQKTESTLNALLQRVTELERGNSAFKSPDAFKVSLPLRTNYLYGKIKKTLPELYAFTICLWLRSSASPGIGTPFSYAVPGQANEIVLIEWGNNPIELLINDKVAQLPLFVSDGKWHHICVTWTTRDGMWEAFQDGEKLGTGENLAPWHPIKPGGVLILGQEQDTVGGRFDATQAFVGELSQFNIWDRVLRAQEIVNIANCSTNMPGNIIPWVDNNVDVFGGASKWPVETCEERLLDL
Kd [1]: ~2 nM

B2: neuronal pentraxin 2 (Nptx2), purified recombinant, His-tagged (natural protein, UniProt P47972 16-431, looked up)
chain: B1 chain 2
stoichiometry N [2]: 6

B3: Rat Nptx2 pentraxin domain (X2-PD) (domain or fragment, UniProt P97738 224-425, looked up)
chain: DAFKVSLPLRTNYLYGKIKKTLPELYAFTICLWLRSSASPGIGTPFSYAVPGQANEIVLIEWGNNPIELLINDKVAQLPLFVSDGKWHHICITWTTRDGMWEAFQDGEKLGTGENLAPWHPIKPGGVLILGQEQDTVGGRFDATQAFVGELSQFNIWDRVLRAQEIINIANCSTNMPGNIIPWVDNNVDVFGGASKWPVETC
binding result [3]: binds
